PMC5382266 (Nature Communications, 2017)

Target: T1, refolded IL-7Rα ectodomain (human, UniProt P16871-1 21-239)
T1 construct: extracellular fragment of human IL-7Rα, NP_002176.2, residues 21-239; His tag removed with thrombin; also called IL-7Rα ectodomain (E. coli); not shown: His6, N-terminal, cleaved
T1 sequence (looked up): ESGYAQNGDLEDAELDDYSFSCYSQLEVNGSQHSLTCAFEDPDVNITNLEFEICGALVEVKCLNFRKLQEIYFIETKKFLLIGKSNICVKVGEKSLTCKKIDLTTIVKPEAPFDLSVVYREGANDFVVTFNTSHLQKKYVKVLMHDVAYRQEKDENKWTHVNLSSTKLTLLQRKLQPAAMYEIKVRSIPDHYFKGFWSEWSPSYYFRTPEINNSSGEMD
Assay: crystal structure; TSLP^Δ127–131:TSLPR^N47Q:IL-7Rα complex; 0.02 M citric acid, 0.08 M BIS-TRIS propane pH 8.8, 16% PEG 3,350, 293 K; 2.55 Å
Conditions: both partners purified

B1: TSLPR^N47Q (domain or fragment, human, UniProt Q9HC73-1 23-221, looked up)
chain: QGGAAEGVQIQIIYFNLETVQVTWQASKYSRTNLTFHYRFNGDEAYDQCTNYLLQEGHTSGCLLDAEQRDDILYFSIRNGTHPVFTASRWMVYYLKPSSPKHVRFSWHQDAVTVTCSDLSYGDLLYEVQYRSPFDTEWQSKQENTCNVTIEGLDAEKCYSFWVRVKAMEDVYGPDTYPSDWSEVTCWQRGEIRDACAET
notes: signal peptide in the construct; extracellular fragment of human TSLPR, NP_071431.2, residues 1-221, N-glycosylation mutant N47Q; also called EndoH-treated TSLPR^N47Q
  binding result: binds
